Test results taken from article doi:10.1101/2020.12.07.415471 (bioRxiv, 2020).

T1: N-terminally thioredoxin (Trx)-tagged Ct domain of CaeA2 (Actinoalloteichus cyanogriseus, UniProt M1F4W8 2080-2484)
T1 sequence (looked up): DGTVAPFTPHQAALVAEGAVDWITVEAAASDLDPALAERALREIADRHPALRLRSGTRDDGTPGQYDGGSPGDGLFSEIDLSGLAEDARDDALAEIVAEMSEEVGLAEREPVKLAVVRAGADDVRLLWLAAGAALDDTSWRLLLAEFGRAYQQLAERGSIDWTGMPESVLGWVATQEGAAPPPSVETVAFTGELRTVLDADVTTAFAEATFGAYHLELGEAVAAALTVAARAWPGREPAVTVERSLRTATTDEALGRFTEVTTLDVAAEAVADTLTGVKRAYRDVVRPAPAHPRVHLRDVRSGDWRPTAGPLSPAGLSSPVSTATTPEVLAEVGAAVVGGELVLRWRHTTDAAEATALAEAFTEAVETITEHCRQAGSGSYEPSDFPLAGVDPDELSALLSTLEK


Tests used:
[1] = molecular target: N-terminally thioredoxin (Trx)-tagged Ct domain of CaeA2 (Actinoalloteichus cyanogriseus) (UniProt M1F4W8); experiment: ITC
[2] = molecular target: T1, N-terminally thioredoxin (Trx)-tagged …; experiment: ITC

Kd [2] [nM]	Molecule	Kd [1] [nM]
	ColB1 (enzyme)	1180
530 ± 120	MBP-fused CaeB1 variant (enzyme) MTTGNGAAPPPLTRLSPEDEAWRAHVRAFAEEHIAPLSDRMDRDATLDPGLREKLFSAGLMAVEAPARYGGRGGSLFQVVLTIEEVARVDPGVAVGVDVHNALVVATLLRQGTGDQKRRRLPLLATRQVGAFALSEENAGSDAFAGTTTAVPTSDGGYRINGRKRWTSNAGQADVFLVFARTEGHGSSAFLVDRTAEGLSIDPRTEQMGVRAAATADVVLTDVRVRRQDCVGGPGGGEGVAIGALDIGRIGIAAQMVGLAQGALDEAVAYSRTREQFGQPIGSYQGVRFTLADIATEVAAARALLYDVTRTVAAGTDIAERLRLTAMAKYFASQVAERAASRALEVLGGNGFTREYPLERFYRDVKAGKIYEGTSNMLLRSIAGSL	
